# Measurements taken from the supplement of paper PMC10567573.
# B1: ZNF649 (parent)
# chain: EHERAHRGEKPHGCSLCGKAFYKR
# B2: STX5 (parent)
# chain: RSEFTLMAKRIGKDLSNTFAKLEK
# Variants of: B1
# Assay: protein stability index of a GFP-peptide fusion (GPS, HEK-293T) (PSI 1-6); higher = more stable
# Conditions: c terminus: a fixed tail appended
# 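Also: lentivirally expressed fusions sorted by FACS into six bins by GFP to DsRed ratio, PSI derived from sequencing read proportions per bin multiplied by bin number.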
row,Variant,protein stability index
1,EHEHAHRGEKPHGCSLCGKAFYKR,2.05
2,EHETAHRGEKPHGCSLCGKAFYKR,1.95
3,EHEAAHRGEKPHGCSLCGKAFYKR,1.97
4,EHEQAHRGEKPHGCSLCGKAFYKR,1.59
5,EHEGAHRGEKPHGCSLCGKAFYKR,2.55
6,EHEMAHRGEKPHGCSLCGKAFYKR,2.08
7,EHEEAHRGEKPHGCSLCGKAFYKR,2.14
8,EHEVAHRGEKPHGCSLCGKAFYKR,2.93
9,EHEIAHRGEKPHGCSLCGKAFYKR,1.91
10,EHECAHRGEKPHGCSLCGKAFYKR,3.31
11,EHEPAHRGEKPHGCSLCGKAFYKR,2.6
12,EHENAHRGEKPHGCSLCGKAFYKR,2.23
13,EPERAHRGEKPHGCSLCGKAFYKR,1.98
14,ECERAHRGEKPHGCSLCGKAFYKR,2.01
15,EQERAHRGEKPHGCSLCGKAFYKR,3.21
16,EDERAHRGEKPHGCSLCGKAFYKR,2
17,EVERAHRGEKPHGCSLCGKAFYKR,1.07
18,ETERAHRGEKPHGCSLCGKAFYKR,3.15
19,EMERAHRGEKPHGCSLCGKAFYKR,2.06
20,EGERAHRGEKPHGCSLCGKAFYKR,1.02
21,ENERAHRGEKPHGCSLCGKAFYKR,1.93
22,ESERAHRGEKPHGCSLCGKAFYKR,1.75
23,EYERAHRGEKPHGCSLCGKAFYKR,1.65
24,EFERAHRGEKPHGCSLCGKAFYKR,2.8
25,EWERAHRGEKPHGCSLCGKAFYKR,1.03
26,ELERAHRGEKPHGCSLCGKAFYKR,1.6
27,EIERAHRGEKPHGCSLCGKAFYKR,2
28,EHHRAHRGEKPHGCSLCGKAFYKR,2.72

row,Variant,protein stability index
1,EHNRAHRGEKPHGCSLCGKAFYKR,2.47
2,EHYRAHRGEKPHGCSLCGKAFYKR,1.95
3,EHMRAHRGEKPHGCSLCGKAFYKR,1.61
4,EHFRAHRGEKPHGCSLCGKAFYKR,2.67
5,EHTRAHRGEKPHGCSLCGKAFYKR,1.89
6,EHARAHRGEKPHGCSLCGKAFYKR,1.5
7,EHIRAHRGEKPHGCSLCGKAFYKR,1.78
8,EHVRAHRGEKPHGCSLCGKAFYKR,3.49
9,EHDRAHRGEKPHGCSLCGKAFYKR,2.01
10,EHGRAHRGEKPHGCSLCGKAFYKR,1.81
11,EHRRAHRGEKPHGCSLCGKAFYKR,1.96
12,EHLRAHRGEKPHGCSLCGKAFYKR,1.92
13,EHCRAHRGEKPHGCSLCGKAFYKR,2.74
14,THERAHRGEKPHGCSLCGKAFYKR,3.46
15,PHERAHRGEKPHGCSLCGKAFYKR,2.15
16,VHERAHRGEKPHGCSLCGKAFYKR,2.77
17,KHERAHRGEKPHGCSLCGKAFYKR,3.37
18,RHERAHRGEKPHGCSLCGKAFYKR,1.7
19,AHERAHRGEKPHGCSLCGKAFYKR,2.16
20,MHERAHRGEKPHGCSLCGKAFYKR,1.88
21,YHERAHRGEKPHGCSLCGKAFYKR,2.38
22,IHERAHRGEKPHGCSLCGKAFYKR,1.49
23,HHERAHRGEKPHGCSLCGKAFYKR,1.86
24,DHERAHRGEKPHGCSLCGKAFYKR,2.2
25,WHERAHRGEKPHGCSLCGKAFYKR,1.85
26,QHERAHRGEKPHGCSLCGKAFYKR,2.07
27,NHERAHRGEKPHGCSLCGKAFYKR,1.69

# Variants of: B2
# Assay: as above
# Conditions: c terminus: a fixed tail appended
row,Variant,protein stability index
1,RSEFTLMAKRIGKDLSNTFAKHEK,2.7
2,RSEFTLMAKRIGKDLSNTFAKIEK,4.01
3,RSEFTLMAKRIGKDLSNTFAKFEK,2.67
4,RSEFTLMAKRIGKDLSNTFAKCEK,1.79
5,RSEFTLMAKRIGKDLSNTFAKTEK,2.7
6,RSEFTLMAKRIGKDLSNTFAKPEK,3.06
7,RSEFTLMGKRIGKDLSNTFAKLEK,2.49
8,RSEFTLMEKRIGKDLSNTFAKLEK,2.87
9,RSEFTLMIKRIGKDLSNTFAKLEK,2.79
10,RSEFTLMKKRIGKDLSNTFAKLEK,2.99
11,RSEFTLMDKRIGKDLSNTFAKLEK,3.02
12,RSEFTLMRKRIGKDLSNTFAKLEK,2.79
13,ISEFTLMAKRIGKDLSNTFAKLEK,1.92
14,NSEFTLMAKRIGKDLSNTFAKLEK,1.82
15,LSEFTLMAKRIGKDLSNTFAKLEK,3.25
16,TSEFTLMAKRIGKDLSNTFAKLEK,2.7
17,ASEFTLMAKRIGKDLSNTFAKLEK,2.12
18,SSEFTLMAKRIGKDLSNTFAKLEK,2.54
19,ESEFTLMAKRIGKDLSNTFAKLEK,1.45
20,QSEFTLMAKRIGKDLSNTFAKLEK,1.49
21,RSEFTLMAHRIGKDLSNTFAKLEK,2.64
22,RSEFTLMAVRIGKDLSNTFAKLEK,2.17
23,RSEFTLMAYRIGKDLSNTFAKLEK,2.99

row,Variant,protein stability index
1,RSEFTLMAKRIGKALSNTFAKLEK,4.25
2,RSEFTLMAKRIGKGLSNTFAKLEK,3.97
3,RSEFTLMAKRIGKQLSNTFAKLEK,4.98
4,RSEFTLMAKRKGKDLSNTFAKLEK,2.93
5,RSEFTLMAKRLGKDLSNTFAKLEK,1.57
6,RSEFTLMAKRWGKDLSNTFAKLEK,1.18
7,RSEFTLMAKRRGKDLSNTFAKLEK,3.81
8,RSEFTLMAKRYGKDLSNTFAKLEK,2.14
9,RSEFTLMAKRPGKDLSNTFAKLEK,3.52
10,RSEFTLMAKREGKDLSNTFAKLEK,3.9
11,RSEFDLMAKRIGKDLSNTFAKLEK,2.25
12,RSEFHLMAKRIGKDLSNTFAKLEK,2.58
13,RSEFKLMAKRIGKDLSNTFAKLEK,1.54
14,RSEFFLMAKRIGKDLSNTFAKLEK,3.04
15,RGEFTLMAKRIGKDLSNTFAKLEK,1.51
16,RWEFTLMAKRIGKDLSNTFAKLEK,2.39
17,RNEFTLMAKRIGKDLSNTFAKLEK,1.03
18,RAEFTLMAKRIGKDLSNTFAKLEK,1.36
19,RSEFTLMAKRIGKDLLNTFAKLEK,2.89
20,RSEFTLMAKRIGKDLCNTFAKLEK,1.65
21,RSEFTLMAKRIGKDLKNTFAKLEK,3.85
22,RSEFTLMAKRIGKDLMNTFAKLEK,1.72
23,RSEFTLMAKRIGKDLINTFAKLEK,3.35

row,Variant,protein stability index
1,RSEFTLMAKRIGKDLQNTFAKLEK,2.14
2,RSEFTLMAKRIGKDLWNTFAKLEK,1.99
3,RSEFTLMAKRIGKDFSNTFAKLEK,2.92
4,RSEFTLMAKRIGKDCSNTFAKLEK,1.53
5,RSEFTLMAKRIGKDRSNTFAKLEK,2.97
6,RSEFTLMAKRIGKDVSNTFAKLEK,1.9
7,RSEFTLMAKRIGKDDSNTFAKLEK,3.46
8,RSEFTLMAKRIGKDLSITFAKLEK,3.01
9,RSEFTLMAKRIGKDLSCTFAKLEK,2.02
10,RSEFTLMAKRIGKDLSWTFAKLEK,1.81
11,RSEFTLMAKRIGKDLSLTFAKLEK,2.21
12,RSEFTLMAKRIGKDLSQTFAKLEK,1.61
13,RSEFTLMAKRIGKDLSETFAKLEK,3.15
14,RSEFTLMAKRIGKDLSATFAKLEK,3.04
15,RSEFTLCAKRIGKDLSNTFAKLEK,1.01
16,RSEFTLAAKRIGKDLSNTFAKLEK,1.64
17,RSEFTLMAKRIGKDLSNTFAKLEQ,1.66
18,RSEFTLMAKRIGKDLSNTFAKLED,2.61
19,RSEFTLMAKRIGKDLSNTFAKLEY,3.59
20,RSEFTLMAKRIGKDLSNTFAKLEV,2.42
21,RSEFTLMAKRIGKDLSNTFAKLEN,3.22
22,RSEFTLMAKRIGKDLSNTFAKLEM,3.26
23,RSEFTLMAKRIGKDLSNTFAKLEE,1.76

row,Variant,protein stability index
1,RSEFTLMAKRIGKDLSNTFAKLEL,2.38
2,RSEFTLMAKRIGKDLSNTFAKLET,3.14
3,RSEFTLMAKRIGKDLSNTFAKLEP,2.42
4,RSEFTVMAKRIGKDLSNTFAKLEK,2.28
5,RSEFTQMAKRIGKDLSNTFAKLEK,2.23
6,RSEFTTMAKRIGKDLSNTFAKLEK,2.48
7,RSEFTGMAKRIGKDLSNTFAKLEK,1.63
8,RSEFTFMAKRIGKDLSNTFAKLEK,2.36
9,RSEFTNMAKRIGKDLSNTFAKLEK,2.06
10,RSEFTIMAKRIGKDLSNTFAKLEK,3.08
11,RSEFTRMAKRIGKDLSNTFAKLEK,3.66
12,RSEFTLMAKRIGKDLSNTFATLEK,2.01
13,RSEFTLMAKRIGKDLSNTFALLEK,2.47
14,RSEFTLMAKRIGKDLSNTFACLEK,2.69
15,RSEFTLMAKRIGKDLSNTFAMLEK,1.94
16,RSEFTLMAKRIGKDLSNTFMKLEK,2.64
17,RSEFTLMAKRIGKDLSNTFVKLEK,2.24
18,RSEFTLMAKRIGKDLSNTFEKLEK,1.58
19,RSCFTLMAKRIGKDLSNTFAKLEK,2.91
20,RSTFTLMAKRIGKDLSNTFAKLEK,3.43
21,RSRFTLMAKRIGKDLSNTFAKLEK,3.64
22,RSEFTLMAKRIGKDLSNAFAKLEK,2.31
23,RSEFTLMAKRIGKDLSNIFAKLEK,3.4

row,Variant,protein stability index
1,RSEFTLMAKRIGKDLSNPFAKLEK,2.45
2,RSEFTLMAKRIGKDLSNRFAKLEK,1.77
3,RSEFTLMAKRIGKDLSNDFAKLEK,3.07
4,RSEYTLMAKRIGKDLSNTFAKLEK,2.1
5,RSEWTLMAKRIGKDLSNTFAKLEK,3.86
6,RSEQTLMAKRIGKDLSNTFAKLEK,3.49
7,RSELTLMAKRIGKDLSNTFAKLEK,2.33
8,RSESTLMAKRIGKDLSNTFAKLEK,3.69
9,RSECTLMAKRIGKDLSNTFAKLEK,2.65
10,RSEHTLMAKRIGKDLSNTFAKLEK,3.31
11,RSEFTLMAKRIGKDLSNTRAKLEK,3.88
12,RSEFTLMAKRIGKDLSNTPAKLEK,3.94
13,RSEFTLMAKRIGKDLSNTGAKLEK,3.57
14,RSEFTLMAKRIGKDLSNTIAKLEK,2.24
15,RSEFTLMAKRIGKDLSNTKAKLEK,2.71
16,RSEFTLMAKCIGKDLSNTFAKLEK,2.66
17,RSEFTLMAKKIGKDLSNTFAKLEK,3.31
18,RSEFTLMAKHIGKDLSNTFAKLEK,2.01
19,RSEFTLMAKAIGKDLSNTFAKLEK,2.85
20,RSEFTLMAKMIGKDLSNTFAKLEK,1.99
21,RSEFTLMAKEIGKDLSNTFAKLEK,2.94
22,RSEFTLMAKWIGKDLSNTFAKLEK,2.02
23,RSEFTLMAKVIGKDLSNTFAKLEK,1.09

row,Variant,protein stability index
1,RSEFTLMAKLIGKDLSNTFAKLEK,2.73
2,RSEFTLMAKRILKDLSNTFAKLEK,3.53
3,RSEFTLMAKRIVKDLSNTFAKLEK,1.54
4,RSEFTLMAKRIDKDLSNTFAKLEK,2.9
5,RSEFTLMAKRISKDLSNTFAKLEK,3.15
6,RSEFTLMAKRIPKDLSNTFAKLEK,3.81
7,RSEFTLMAKRIMKDLSNTFAKLEK,2.58
8,RSEFTLMAKRIKKDLSNTFAKLEK,2.79
9,RSEFTLMAKRIGKDLSNTFAKLHK,3.8
10,RSEFTLMAKRIGKDLSNTFAKLSK,2.18
11,RSEFTLMAKRIGADLSNTFAKLEK,1.49
12,RSEFTLMAKRIGGDLSNTFAKLEK,2.84
13,RSEFTLMAKRIGVDLSNTFAKLEK,2.1
14,RSEFTLMAKRIGLDLSNTFAKLEK,2.83
15,RSEFTLMAKRIGRDLSNTFAKLEK,2.33
16,RSEFTLMAKRIGSDLSNTFAKLEK,2.55
17,RSEFTLMAKRIGTDLSNTFAKLEK,1.46
18,RSEFTLMAKRIGPDLSNTFAKLEK,2.54
